Experimental data: publication PMC4356373, “The structure of the hexameric atrazine chlorohydrolase AtzA” (Acta Crystallographica Section D: Biological Crystallography, 2015)
Residue numbers refer to the chain shown, from its start.

B1: Atrazine chlorohydrolase (AtzA), wild type (enzyme, Pseudomonas sp. strain ADP)
chain: MQTLSIQHGTLVTMDQYRRVLGDSWVHVQDGRIVALGVHAESVPPPADRVIDARGKVVLPGFINAHTHVNQILLRGGPSHGRQFYDWLFNVVYPGQKAMRPEDVAVAVRLYCAEAVRSGITTINENADSAIYPGNIEAAMAVYGEVGVRVVYARMFFDRMDGRIQGYVDALKARSPQVELCSIMEETAVAKDRITALSDQYHGTAGGRISVWPAPATTTAVTVEGMRWAQAFARDRAVMWTLHMAESDHDERIHGMSPAEYMECYGLLDERLQVAHCVYFDRKDVRLLHRHNVKVASQVVSNAYLGSGVAPVPEMVERGMAVGIGTDNGNSNDSVNMIGDMKFMAHIHRAVHRDADVLTPEKILEMATIDGARSLGMDHEIGSIETGKRADLILLDLRHPQTTPHHHLAATIVFQAYGNEVDTVLIDGNVVMENRRLSFLPPERELAFLEEAQSRATAILQRANMVANPAWRSL
notes: Atrazine chlorohydrolase AtzA of Pseudomonas sp. strain ADP, wild-type atzA gene in the pCS150 expression vector; about 470 amino acids; one Fe2+ per monomer; hexamer is a trimer of dimers; also called wild-type protein; source: E. coli BL21 λDE3, purified (Ni-NTA, SEC, thrombin cleavage of the His tag, SEC)
B2: AtzA Ala170Thr, Met256Ile, Pro258Thr, Tyr261Ser variant (enzyme, Pseudomonas sp. strain ADP)
chain: B1 chain with A170T, M256I, P258T, Y261S
notes: synthetic gene (Life Technologies) subcloned into pCS150; The PDB entries hold the wild-type parent of the same vector, not this variant; also called AtzA variant; the variant; source: E. coli BL21 λDE3, purified (Ni-NTA, SEC, thrombin cleavage of the His tag, SEC)

Experiments:
[1] = target: the molecule itself; assay: crystal structure; two crystal forms: P22(1)2(1) at 2.8 Å (two hexamers in the asymmetric unit) and P2(1)2(1)2(1) at 2.2 Å (one hexamer); PEG 8000 or PEG 10 000, 50 mM HEPES pH 7.1-7.3, 281 K
[2] = target: the molecule itself; assay: SEC; purified variant, size by SEC; data not shown

| Protein | stoichiometry N [1] | stoichiometry N [2] |
| --- | --- | --- |
| B1 | 6 |  |
| B2 |  | 2 |
